From paper PMC3843637

Target: MAN1 fragment from amino acids 658 to 911 (MAN1C) (human) (UniProt Q9Y2U8)
Test: SEC + NMR titration

Sequence of MAN1 fragment from amino acids 658 to 911 (MAN1C) (human) (Q9Y2U8 658-911): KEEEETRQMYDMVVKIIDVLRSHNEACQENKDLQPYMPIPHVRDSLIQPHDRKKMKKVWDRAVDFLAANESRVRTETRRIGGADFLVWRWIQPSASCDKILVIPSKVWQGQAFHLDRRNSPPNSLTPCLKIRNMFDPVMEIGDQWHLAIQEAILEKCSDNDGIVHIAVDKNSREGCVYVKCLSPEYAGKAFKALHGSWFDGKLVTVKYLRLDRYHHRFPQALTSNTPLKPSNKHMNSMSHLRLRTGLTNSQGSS

Kd: 10 to 500 µM
Substance: PPM1A (from UniProt P35813 1-382) (enzyme)
